Test results taken from IntAct's records for PubMed 19402751.

Target: T1, tim_drome tim (UniProt P49021)
T1 sequence: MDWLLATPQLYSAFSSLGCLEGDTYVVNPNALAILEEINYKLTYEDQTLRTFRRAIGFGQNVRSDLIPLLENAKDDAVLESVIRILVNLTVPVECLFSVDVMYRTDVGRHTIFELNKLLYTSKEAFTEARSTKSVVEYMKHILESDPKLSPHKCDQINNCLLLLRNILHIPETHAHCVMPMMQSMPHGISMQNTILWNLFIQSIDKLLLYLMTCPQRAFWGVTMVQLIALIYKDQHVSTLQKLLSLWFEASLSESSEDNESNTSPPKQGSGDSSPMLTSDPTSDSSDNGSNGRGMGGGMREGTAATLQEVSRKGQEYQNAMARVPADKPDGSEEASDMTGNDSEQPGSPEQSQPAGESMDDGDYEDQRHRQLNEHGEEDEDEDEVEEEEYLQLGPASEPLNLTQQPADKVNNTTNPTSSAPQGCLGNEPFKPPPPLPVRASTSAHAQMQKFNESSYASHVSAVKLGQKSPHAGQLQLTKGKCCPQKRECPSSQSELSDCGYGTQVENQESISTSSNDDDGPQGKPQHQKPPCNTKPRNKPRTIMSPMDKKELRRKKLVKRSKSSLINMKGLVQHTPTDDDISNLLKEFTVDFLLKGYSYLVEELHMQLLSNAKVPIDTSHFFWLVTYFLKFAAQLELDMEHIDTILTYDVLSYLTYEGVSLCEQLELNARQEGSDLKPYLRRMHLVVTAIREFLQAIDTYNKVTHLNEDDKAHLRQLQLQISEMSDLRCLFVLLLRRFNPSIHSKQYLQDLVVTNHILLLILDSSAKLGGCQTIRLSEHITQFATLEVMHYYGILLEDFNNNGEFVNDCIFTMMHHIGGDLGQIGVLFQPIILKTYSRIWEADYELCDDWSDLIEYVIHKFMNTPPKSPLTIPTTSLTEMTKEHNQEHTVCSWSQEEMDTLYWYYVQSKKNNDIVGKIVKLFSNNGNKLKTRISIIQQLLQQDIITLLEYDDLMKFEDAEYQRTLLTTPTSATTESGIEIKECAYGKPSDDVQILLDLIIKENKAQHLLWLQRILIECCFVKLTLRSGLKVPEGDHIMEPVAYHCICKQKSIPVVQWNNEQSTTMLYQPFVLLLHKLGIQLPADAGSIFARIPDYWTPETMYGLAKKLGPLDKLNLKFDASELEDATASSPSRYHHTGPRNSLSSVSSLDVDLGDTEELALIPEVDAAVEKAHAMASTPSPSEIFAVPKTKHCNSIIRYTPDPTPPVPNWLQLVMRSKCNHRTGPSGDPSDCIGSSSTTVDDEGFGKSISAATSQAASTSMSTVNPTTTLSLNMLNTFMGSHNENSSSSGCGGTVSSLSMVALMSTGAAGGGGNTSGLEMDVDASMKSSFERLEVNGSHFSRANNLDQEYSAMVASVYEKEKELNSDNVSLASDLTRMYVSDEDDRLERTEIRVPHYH

Question: Which “effect of a mutation on the interaction” value does the source give for “Period circadian protein (Drosophila melanogaster (Fruit fly)) (from UniProt P07663-1) E474R;H492S;R494D” here?
Answer: The value was “disrupting interaction”.
